Measured values reported in US9644034B2, “Anti-RSPO2 antibodies and uses thereof” (OncoMed Pharmaceuticals, Inc., priority 2011, dated 2017).

Tests used:
[1] = tested on: RSPO1-induced β-catenin signaling; assay: TOPflash luciferase assay in HEK-293 cells, Wnt3a plus human RSPO1; assay type: cell-based; conditions: Wnt3a 5 ng/ml, RSPO1 10 ng/ml; antibodies 10 to 0.625 μg/ml
Method: HEK-293 cells were transfected with a 6×TCF-luciferase reporter vector (TOPflash, Millipore, Billerica, Mass.). After 24-48 hrs, the transfected HEK-293 cells were incubated with a combination of Wnt3a (5 ng/ml) and human RSPO1 (10 ng/ml, R&D BioSystems) in the presence of anti-RSPO1 antibodies 89M2, 89M4, 89M5, 89M7, 89M19, and 89M25, or 2 irrelevant control antibodies 254M14 and 254M26 (2-fold dilutions at 10 μg/ml to 0.625 μg/ml). The cells were incubated for 16 hours and luciferase activity was measured using Steady-Glo® Luciferase Assay System according to the manufacturer's instructions (Promega, Madison, Wis.).

OV19 ovarian tumor cells = assay: OV19 ovarian tumor xenograft growth in NOD/SCID mice; assay type: in vivo; conditions: day 35, vs control antibody; antibodies 15 mg/kg once a week, intraperitoneal
Method: Dissociated OV19 ovarian tumor cells (1×10^5cells) were injected in the mammary fat pads of 6-8 week old NOD/SCID mice. Tumors were allowed to grow for 45 days until they reached an average volume of 134 mm^3. The mice were randomized (n=10 per group) and treated with anti-RSPO1 antibody 89M5, 89M25, taxol, a combination of 89M5 and taxol, a combination of 89M25 and taxol, or control antibody 1B7.11. Antibodies were dosed at 15 mg/kg once a week, and taxol was dosed at […] once a week. Administration of the antibodies and taxol was performed via injection into the intraperitoneal cavity. Tumor growth was monitored and tumor volumes were measured with electronic calipers at the indicated time points. Data are expressed as mean±S.E.M.

human RSPO1 [2] = target: T1, human RSPO1 (Homo sapiens, UniProt Q2MKA7); assay: FACS screening of hybridoma supernatants on HEK-293 cells expressing FLAG-RSPO1furin-CD4TM-GFP; assay type: binding
T1 construct: followed by the two furin-like domains of RSPO1 (aa 34-135); expressed in transfected cells; host or cells: HEK-293
T1 sequence (Q2MKA7 34-135): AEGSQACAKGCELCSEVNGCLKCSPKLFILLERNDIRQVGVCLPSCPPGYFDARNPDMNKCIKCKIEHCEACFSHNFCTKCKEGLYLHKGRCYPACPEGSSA
Description: Antibodies were generated against recombinant human RSPO1 protein amino acids 31-263 (R&D Systems, Minneapolis, Minn.). Mice (n=3) were immunized with RSPO1 protein using standard techniques. Sera from individual mice were screened against RSPO1 approximately 70 days after initial immunization using FACS analysis. The animal with the highest antibody titer was selected for final antigen boost after which spleen cells were isolated for hybridoma production. SP2/0 cells were used as fusion partners for the mouse spleen cells. Hybridoma cells were plated at 1 cell per well in 96 well plates, and the supernatants were screened against human RSPO1 by FACS analysis.
For FACS screening of anti-RSPO1 antibodies a chimeric fusion protein enabling cell surface expression of the N-terminal furin-like domains of human RSPO1 was constructed.
HEK-293 cells were transfected with FLAG-RSPOlfurin-CD4TM-GFP. After 48 hours, transfected cells were suspended in ice cold PBS containing 2% FBS and heparin and incubated on ice in the presence of 50 μl of hybridoma supernatants for 30 minutes. A second incubation with 100 μl PE-conjugated […] secondary antibody was performed to detect cells bound by antibody. Cells were incubated with an anti-FLAG antibody (Sigma-Aldrich, St. Louis, Mo.) as a positive control and an anti-PE antibody as a negative control. The cells were analyzed on a FACSCalibur instrument (BD Biosciences, San Jose, Calif.) and the data was processed using FlowJo software.

binding of RSPO1 to LGR5 = target: T2, binding of RSPO1 to LGR5 (Homo sapiens, UniProt Q2MKA7); assay: FACS: blocking of soluble RSPO1-Fc binding to LGR5 on HEK-293 cells; conditions: RSPO1-Fc 10 μg/ml, antibodies 10 μg/ml
T2 construct: full-length human RSPO1, RSPO2, RSPO3 and RSPO4 were ligated in-frame to a human Fc region; made in house; host or cells: RSPO1-Fc: insect cells (baculovirus); LGR5 construct: transiently transfected HEK-293
T2 sequence (Q2MKA7 21-263): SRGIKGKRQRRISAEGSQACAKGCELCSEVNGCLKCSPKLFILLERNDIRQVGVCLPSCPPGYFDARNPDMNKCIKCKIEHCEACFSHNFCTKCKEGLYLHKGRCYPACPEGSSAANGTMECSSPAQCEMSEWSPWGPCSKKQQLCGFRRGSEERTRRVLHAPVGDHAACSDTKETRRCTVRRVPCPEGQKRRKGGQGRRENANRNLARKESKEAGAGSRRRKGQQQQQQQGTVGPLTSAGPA
Method: HEK-293 cells were transiently transfected with the FLAG-LGR5-CD4TM-GFP construct (previously described in Example 2). After 48 hours, transfected cells were suspended in ice cold PBS containing 2% FBS and heparin and incubated on ice in the presence of RSPO1-Fc protein (10 μg/ml) and antibodies 89M2, 89M4, 89M5, 89M7, 89M19 or 89M25 (10 μg/ml). A second incubation with 100 μl PE-conjugated anti-human Fc secondary antibody was performed to detect cells bound by the RSPO1-Fc fusion protein. The cells were analyzed on a FACSCalibur instrument (BD Biosciences, San Jose, Calif.) and the data was processed using FlowJo software.

LGR5 = target: T3, LGR5 (Homo sapiens, UniProt O75473); assay: FACS binding of RSPO-Fc fusion proteins to LGR5 expressed on HEK-293 cells; conditions: Fc fusion proteins 10 μg/ml
T3 construct: ligating amino acids 22-564 of human LGR5 to an N-terminal FLAG tag; expressed in transfected cells; host or cells: HEK-293
T3 sequence (O75473 22-564): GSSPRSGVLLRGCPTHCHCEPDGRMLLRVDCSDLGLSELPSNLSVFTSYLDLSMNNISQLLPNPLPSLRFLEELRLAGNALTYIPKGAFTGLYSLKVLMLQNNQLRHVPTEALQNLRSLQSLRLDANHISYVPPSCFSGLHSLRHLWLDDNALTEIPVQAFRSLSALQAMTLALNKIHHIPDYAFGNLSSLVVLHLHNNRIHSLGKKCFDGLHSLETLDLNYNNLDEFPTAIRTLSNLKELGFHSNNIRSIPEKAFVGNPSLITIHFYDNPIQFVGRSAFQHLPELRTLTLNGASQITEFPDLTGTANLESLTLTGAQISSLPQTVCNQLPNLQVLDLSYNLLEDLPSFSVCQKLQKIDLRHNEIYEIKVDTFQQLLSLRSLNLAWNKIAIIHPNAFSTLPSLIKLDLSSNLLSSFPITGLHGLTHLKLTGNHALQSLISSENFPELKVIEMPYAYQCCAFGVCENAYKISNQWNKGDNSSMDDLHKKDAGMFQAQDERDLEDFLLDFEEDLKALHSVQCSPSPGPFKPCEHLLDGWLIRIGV
Description: A cell surface LGR5 protein was generated by ligating amino acids 22-564 of human LGR5 to an N-terminal FLAG tag and to the transmembrane domain of CD4 and a C-terminal GFP protein tag using standard recombinant DNA techniques (FLAG-LGR5-CD4TM-GFP). RSPO-Fc constructs were generated using standard recombinant DNA techniques. Specifically, full-length human RSPO1, RSPO2, RSPO3 and RSPO4 were ligated in-frame to a human Fc region and the recombinant RSPO-Fc proteins were expressed in insect cells using baculovirus. The fusion proteins were purified from the insect medium using protein A chromatography.
HEK-293 cells were transiently transfected with the FLAG-LGR5-CD4TM-GFP construct. After 48 hours, transfected cells were suspended in ice cold PBS containing 2% FBS and heparin and incubated on ice in the presence of 10 μg/ml RSPO1-Fc, RSPO2-Fc, RSPO3-Fc, RSPO4-Fc, or FZD8-Fc fusion proteins for 15 minutes. A second incubation with 100 μl PE-conjugated anti-human Fc secondary antibody was performed to detect cells bound by the Fc fusion proteins. Cells were incubated with an anti-FLAG antibody (Sigma-Aldrich, St. Louis, Mo.) as a positive control and with an anti-PE antibody as a negative control. The cells were analyzed on a FACSCalibur instrument (BD Biosciences, San Jose, Calif.) and the data was processed using FlowJo software.

human RSPO1 [3] = target: T1, human RSPO1; assay: FACS binding of 89M5 and humanized 89M5 to HEK293 cells expressing FLAG-RSPO1furin-CD4TM-GFP; conditions: five-fold serial dilutions
Method: HEK293 cells were transiently transfected with an expression vector encoding FLAG-RSPO1furin-CD4TM-GFP. As described in Example 5, FLAG-RSPO1furin-CD4TM-GFP is a chimeric fusion protein enabling cell surface expression of the N-terminal furin-like domains of human RSPO1. FLAG-RSPO1 furin-CD4TM-GFP transfected cells were incubated in the presence of anti-RSPO1 antibody 89M5 or humanized anti-RSPO1 antibody h89M5-H2L2. Five-fold serial dilutions of each antibody were examined for their ability to bind to the RSPO1 expressing cells. The cells were stained with Phycoerythrin conjugated anti-IgG to reveal bound antibody. The cells were analyzed on a FACSCalibur instrument (BD Biosciences, San Jose, Calif.) and the data was processed using FlowJo software.

B1: 89M25: anti-RSPO1 monoclonal antibody; same heavy and light chain variable regions as 89M5 (antibody, V domains shown)
VH: EVQLQQSGPELVKPGASVKISCKTSGYTFTGYTMHWVRQSHGKTLEWIGGINPNNGGTTYNQNFKGKATLTVEKSSTTAYLELRSLTSEDSALYYCARKEFSDGYYFFAYWGQGTLVTVSA
VL: DIVMTQSHKFMSTSVGDRVNITCKASQDVIFAVAWYQQKPGQSPKLLIYWASTRHTGVPDRFTGSVSGTDYTLTISSVQAEDLALYYCQQHYSTPWTFGGGTKLEIK
blocking of RSPO1-induced β-catenin signaling [1]: blocked | reduction in tumor growth (OV19 ovarian tumor cells): 25% | binding to RSPO1 (FACS) (human RSPO1 [2]): bound | blocking of binding of RSPO1 to LGR5 (binding of RSPO1 to LGR5): blocked

B2: RSPO4: full-length human RSPO4 ligated to a human Fc region (protein)
chain: LNRRKKQVGTGLGGNCTGCIICSEENGCSTCQQRLFLFIRREGIRQYGKCLHDCPPGYFGIRGQEVNRCKKCGATCESCFSQDFCIRCKRQFYLYKGKCLPTCPPGTLAHQNTRECQGECELGPWGGWSPCTHNGKTCGSAWGLESRVREAGRAGHEEAATCQVLSESRKCPIQRPCPGERSPGQKKGRKDRRPRKDRKLDRRLDVRPRQPGLQP
modifications: left off: a dimerising Fc or GST
notes: full-length human RSPO4 ligated to a human Fc region
binding to LGR5 expressed on the surface of HEK-293 cells (LGR5): bound

B3: RSPO3: full-length human RSPO3 ligated to a human Fc region (protein)
chain: QNASRGRRQRRMHPNVSQGCQGGCATCSDYNGCLSCKPRLFFALERIGMKQIGVCLSSCPSGYYGTRYPDINKCTKCKADCDTCFNKNFCTKCKSGFYLHLGKCLDNCPEGLEANNHTMECVSIVHCEVSEWNPWSPCTKKGKTCGFKRGTETRVREIIQHPSAKGNLCPPTNETRKCTVQRKKCQKGERGKKGRERKRKKPNKGESKEAIPDSKSLESSKEIPEQRENKQQQKKRKVQDKQKSVSVSTVH
binding to LGR5 expressed on the surface of HEK-293 cells (LGR5): bound

B4: h89M5-H2L2: humanized anti-RSPO1 antibody; heavy chain SEQ ID NO:68, light chain SEQ ID NO:69 (antibody)
heavy: QVQLVQSGAEVKKPGASVKVSCKTSGYTFTGYTMHWVRQAPGQRLEWMGGINPNNGGTTYNQNFKGRVTITRDTSASTAYMELSSLRSEDTAVYYCARKEFSDGYYFFAYWGQGTLVTVSSASTKGPSVFPLAPCSRSTSESTAALGCLVKDYFPEPVTVSWNSGALTSGVHTFPAVLQSSGLYSLSSVVTVPSSNFGTQTYTCNVDHKPSNTKVDKTVERKCCVECPPCPAPPVAGPSVFLFPPKPKDTLMISRTPEVTCVVVDVSHEDPEVQFNWYVDGVEVHNAKTKPREEQFNSTFRVVSVLTVVHQDWLNGKEYKCKVSNKGLPAPIEKTISKTKGQPREPQVYTLPPSREEMTKNQVSLTCLVKGFYPSDIAVEWESNGQPENNYKTTPPMLDSDGSFFLYSKLTVDKSRWQQGNVFSCSVMHEALHNHYTQKSLSLSPGK
light: DIQMTQSPSSLSASVGDRVTITCKASQDVIFAVAWYQQKPGKAPKLLIYWASTRHTGVPSRFSGSGSGTDYTLTISSLQPEDFATYYCQQHYSTPWTFGGGTKVEIKRTVAAPSVFIFPPSDEQLKSGTASVVCLLNNFYPREAKVQWKVDNALQSGNSQESVTEQDSKDSTYSLSNTLTLSKADYEKHKVYACEVTHQGLSSPVTKSFNRGEC
modifications: h89M5-H2L2 Heavy chain amino acid sequence; h89M5-H2L2 Light chain amino acid sequence
binding to human RSPO1 (FACS) (human RSPO1 [3]): bind
